Results on 5 molecules are retold here after patent publication US10849992B1, “Methods of screening for sortilin binding antagonists” (ALECTOR LLC, priority 2015, dated 2020).

No end group written: not given here. *: point of attachment. Biotin = O=C1N[C@H]2[C@H](CS[C@H]2CCCCC(=O)*)N1

In test [1] the target is T1, human sortilin expressed on cells (human, UniProt Q99523 78-831).
T1 construct: Transiently transfected HEK293T cells; The same id is used for endogenous sortilin on U-251 cells; also called Sortilin1; full-length Sortilin
T1 sequence: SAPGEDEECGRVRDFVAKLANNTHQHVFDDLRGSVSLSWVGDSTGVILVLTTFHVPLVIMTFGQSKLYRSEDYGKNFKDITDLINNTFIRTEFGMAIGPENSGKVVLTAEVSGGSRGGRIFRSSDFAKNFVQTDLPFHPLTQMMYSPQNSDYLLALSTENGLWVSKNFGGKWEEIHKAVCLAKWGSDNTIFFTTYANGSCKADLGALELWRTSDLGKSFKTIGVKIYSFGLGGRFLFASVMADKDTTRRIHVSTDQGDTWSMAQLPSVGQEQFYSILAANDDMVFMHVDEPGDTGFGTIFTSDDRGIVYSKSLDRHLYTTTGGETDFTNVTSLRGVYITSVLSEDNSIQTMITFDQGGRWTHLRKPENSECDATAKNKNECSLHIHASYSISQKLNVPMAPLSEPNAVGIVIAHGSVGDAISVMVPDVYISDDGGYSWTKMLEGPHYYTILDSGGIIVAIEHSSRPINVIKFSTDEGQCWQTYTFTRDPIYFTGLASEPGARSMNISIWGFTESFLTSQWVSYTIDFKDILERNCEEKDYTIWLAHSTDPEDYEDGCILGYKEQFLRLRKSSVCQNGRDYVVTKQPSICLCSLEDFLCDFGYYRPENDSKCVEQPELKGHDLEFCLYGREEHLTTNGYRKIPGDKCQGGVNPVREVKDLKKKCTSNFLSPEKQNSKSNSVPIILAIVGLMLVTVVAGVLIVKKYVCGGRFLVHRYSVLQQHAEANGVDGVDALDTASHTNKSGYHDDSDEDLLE
The experiment in a line: FACS, blocking of PGRN-DyLight650 binding and endocytosis on sortilin-expressing cells.

In test [2] the target is T1, human sortilin expressed on cells. The experiment in a line: FACS, blocking of biotinylated PGRN binding to sortilin-expressing HEK293T cells. Here is the method:
(§1) Cells were then washed and incubated with Streptavidin-APC and analyzed using Fluorescence Activated Cell Sorting (FACS). […] Cells were transiently transfected with human Sortilin or lacZ (control) and GFP using Fugene and harvested after 24 h. GFP was either expressed by a second vector (Topo3.3, Invitrogen) or located on the same vector, separated by an IRES sequence (pCMV6-AC-IRES-GFP, Origene). Full-length Sortilin was used either untagged (Topo3.3) or with a C-terminal myc tag (pCMV6-AC-IRES-GFP). […] After washing cells 3 times in HBSS+1% BSA, cells were incubated in Streptavidin-APC (BD Biosciences, 1:20) on ice for 30 min. Then cells were washed again, resuspended in HBSS+1% BSA and analyzed on a FACSCanto™ flow cytometer (BD Biosciences, Mississauga, ON).
On the technique in general: Flow cytometry measures light scatter and fluorescence of single cells or particles in a stream.

For test [3] the target is unchanged. The experiment in a line: flow cytometry on transiently transfected HEK293T cells, on ice, Streptavidin-APC, median fluorescence intensity. Here is the method:
as §1

In another test the target is T2, Sortilin (Homo sapiens, UniProt Q99523).
T2 sequence (Q99523 78-831): T1 sequence
Briefly: Cell-based FACS assay: biotinylated PGRN binding to HEK293T cells expressing Sortilin. The arrangement: Full-length Sortilin was used either untagged (Topo3.3) or with a C-terminal myc tag (pCMV6-AC-IRES-GFP); myc (only in the pCMV6-AC-IRES-GFP construct); expressed in transfected cells; host or cells: HEK293T. The note with it: on ice 2 h, Streptavidin-APC. Here is the method: HEK293T cells were transiently transfected with constructs for expressing Sortilin or LacZ (control) and incubated with biotinylated PGRN protein on ice for 2 h. Both human and mouse PGRN proteins were tested. Cells were then washed and incubated with Streptavidin-APC and analyzed using Fluorescence Activated Cell Sorting (FACS). For blocking assay, sortilin pro-domain peptide was used. Recombinant human PGRN (Adipogen) was biotinylated using a kit (EZ-link-Micro-NHS-PEG4 biotinylation kit, Thermo Scientific Pierce, #21955). Cells were transiently transfected with human Sortilin or lacZ (control) and GFP using Fugene and harvested after 24 h. GFP was either expressed by a second vector (Topo3.3, Invitrogen) or located on the same vector, separated by an IRES sequence (pCMV6-AC-IRES-GFP, Origene). Full-length Sortilin was used either untagged (Topo3.3) or with a C-terminal myc tag (pCMV6-AC-IRES-GFP). Human Progranulin was added in HBSS+1% BSA or PBS+1% BSA with or without Sortilin pro-peptide as a blocker, and incubated on ice for 2 h. […] Then cells were washed again, resuspended in HBSS+1% BSA and analyzed on a FACSCanto™ flow cytometer (BD Biosciences, Mississauga, ON). PGRN binding was measured as the median fluorescence intensity of APC on the GFP positive population.

Test [4] addresses T3, sortilin protein with a C-terminal 6×His-tag (Homo sapiens (Human), UniProt Q99523 78-755, directly conjugated with d2 in assay format #3 (site not stated); unlabeled and detected with d2-labeled 1C12 in assay format #10).
T3 construct: Soluble sortilin of the HTRF assays; also called sortilin-d2; Tb-conjugated sortilin protein
T3 sequence: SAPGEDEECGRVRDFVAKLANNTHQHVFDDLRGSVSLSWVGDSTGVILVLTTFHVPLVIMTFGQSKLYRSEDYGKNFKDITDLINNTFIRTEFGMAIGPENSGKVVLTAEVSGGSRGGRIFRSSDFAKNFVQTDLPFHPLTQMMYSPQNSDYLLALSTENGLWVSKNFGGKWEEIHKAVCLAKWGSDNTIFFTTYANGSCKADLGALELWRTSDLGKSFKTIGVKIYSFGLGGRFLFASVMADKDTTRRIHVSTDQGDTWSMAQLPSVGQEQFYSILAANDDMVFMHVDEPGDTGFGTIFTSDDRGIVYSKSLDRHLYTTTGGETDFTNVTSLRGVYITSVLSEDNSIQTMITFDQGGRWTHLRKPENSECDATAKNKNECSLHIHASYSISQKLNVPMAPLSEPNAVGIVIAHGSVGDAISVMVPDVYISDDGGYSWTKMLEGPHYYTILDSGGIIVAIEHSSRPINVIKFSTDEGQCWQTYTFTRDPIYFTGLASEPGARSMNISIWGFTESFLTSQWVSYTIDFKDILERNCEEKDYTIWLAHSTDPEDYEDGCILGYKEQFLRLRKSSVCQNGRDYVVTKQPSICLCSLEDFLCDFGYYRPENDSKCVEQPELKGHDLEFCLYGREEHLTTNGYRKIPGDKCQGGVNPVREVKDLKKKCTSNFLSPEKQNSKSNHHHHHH
Briefly: HTRF, assay format #3: sortilin-d2 at 9 nM, SA-Tb at 0.33 nM; assay format #3: directly d2 conjugated sortilin, SA-Tb. The source says: (§2) Assay #3 uses directly d2 conjugated sortilin and SA-Tb to detect the peptide. […] Assay #10 uses anti-sortilin 1C12 antibody to detect sortilin and SA-Tb to detect the peptide.
(Time-resolved FRET reads energy transfer from a long-lived donor to a nearby acceptor.)

The target of test [5] is T3, sortilin protein with a C-terminal …. Briefly: HTRF, assay format #10: sortilin at 9 nM, anti-sortilin 1C12 at 20 ng/well, SA-Tb at 0.33 nM; assay format #10: sortilin detected with anti-sortilin 1C12 antibody, SA-Tb.
Description: as §2

For test [6] the target is unchanged. The experiment in a line: row HotKdNM of the drawn table: Kd of the labelled (biotinylated) peptide for sortilin, held constant in the Ki fit of assay format 10; same value in all three columns.

B1: sortilin pro-domain peptide (peptide, UniProt Q99523 34-77, looked up)
peptide: QDRLDAPPPPAAPLPRWSGPIGVSWGLRAAAAGGAFPRGGRWRR
notes: domain: pro-domain; also called Sortilin1 pro-domain peptide; sortilin pro-peptide
On to B1, for which the IC50 in test [1] was 450 nM; in test [2] it was approximately 5900 nM.

B2: biotinylated mouse PGRN (ligand, UniProt P28798 18-589, looked up)
chain: TQCPDGQFCPVACCLDQGGANYSCCNPLLDTWPRITSHHLDGSCQTHGHCPAGYSCLLTVSGTSSCCPFSKGVSCGDGYHCCPQGFHCSADGKSCFQMSDNPLGAVQCPGSQFECPDSATCCIMVDGSWGCCPMPQASCCEDRVHCCPHGASCDLVHTRCVSPTGTHTLLKKFPAQKTNRAVSLPFSVVCPDAKTQCPDDSTCCELPTGKYGCCPMPNAICCSDHLHCCPQDTVCDLIQSKCLSKNYTTDLLTKLPGYPVKEVKCDMEVSCPEGYTCCRLNTGAWGCCPFAKAVCCEDHIHCCPAGFQCHTEKGTCEMGILQVPWMKKVIAPLRLPDPQILKSDTPCDDFTRCPTNNTCCKLNSGDWGCCPIPEAVCCSDNQHCCPQGFTCLAQGYCQKGDTMVAGLEKIPARQTTPLQIGDIGCDQHTSCPVGQTCCPSLKGSWACCQLPHAVCCEDRQHCCPAGYTCNVKARTCEKDVDFIQPPVLLTLGPKVGNVECGEGHFCHDNQTCCKDSAGVWACCPYLKGVCCRDGRHCCPGGFHCSARGTKCLRKKIPRWDMFLRDPVPRPLL
modifications: biotinylated (sites not given)
Regarding B2, in test [3], the binding result was “binds”.

B3: mouse PGRN: mouse PGRN protein, biotinylated, tested in the FACS binding assay (protein)
chain: B2 chain
B3: in the test with Sortilin, the “binding of PGRN to sortilin-expressing, but not control (LacZ), HEK293T cells” value was “strong and specific binding”.

B4: non-biotinylated PGRN peptide (peptide)
peptide: TKCLRREAPRWDAPLRDPALRQLL
notes: also called unlabeled PGRN peptide; C-terminal peptide of PGRN
With B4, the IC50 in test [1] turned out to be 35 nM.

B5: biotinylated PGRN peptide (peptide)
peptide: Biotin-TKCLRREAPRWDAPLRDPALRQLL
notes: Detected through streptavidin-Tb in formats #3, #6 and #10; also called 24 amino acid-sized C-terminal peptide of PGRN; biotinylated peptide
For the molecule B5, the Kd came to 2 nM in test [4], 1.6 nM in test [5] and 1.4 nM in test [6].

As usually defined, the IC50 is the midpoint of a concentration-inhibition curve. Lower therefore signals higher potency. Usually Kd stands for the constant that tells how readily two partners part at equilibrium.
